Where a chain is given by its changes, count along the chain named. Names may count otherwise.
What was measured:
[1] = target: T1, TsaC (Comamonas testosteroni, UniProt P94681); assay: differential scanning fluorimetry; type: binding; conditions: 10 μM enzyme; NADH alone
T1 construct: gene tsaC1; N-terminal His6 tag with TEV site (residues -20 to -1, kept), codon-optimized, pET-28a(+)-TEV, E. coli C41(DE3); native residues 1-252; homotetramer

[2] = target: T2, TsaC (Comamonas testosteroni, UniProt P94681, G149N); assay: GC-MS turnover; type: biochemical; conditions: 5 mM NAD+, 10 μM enzyme, 30 °C, 2 h
T2 construct: gene tsaC1; N-terminal His6 tag with TEV site (residues -20 to -1, kept), codon-optimized, pET-28a(+)-TEV, E. coli C41(DE3); native residues 1-252; homotetramer
T2 sequence (P94681 whole entry G149N, the tested form may be a part): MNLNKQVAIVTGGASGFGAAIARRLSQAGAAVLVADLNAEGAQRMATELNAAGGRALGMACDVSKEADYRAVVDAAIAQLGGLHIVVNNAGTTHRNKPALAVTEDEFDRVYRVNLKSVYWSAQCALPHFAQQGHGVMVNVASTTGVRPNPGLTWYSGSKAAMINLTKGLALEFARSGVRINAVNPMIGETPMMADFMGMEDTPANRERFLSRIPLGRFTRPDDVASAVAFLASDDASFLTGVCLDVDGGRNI

[3] = target: T3, TsaC (Comamonas testosteroni, UniProt P94681, T143Q/G149N); assay: GC-MS turnover; type: biochemical; conditions: 5 mM NAD+, 10 μM enzyme, 30 °C, 2 h
T3 construct: gene tsaC1; N-terminal His6 tag with TEV site (residues -20 to -1, kept), codon-optimized, pET-28a(+)-TEV, E. coli C41(DE3); native residues 1-252; homotetramer
T3 sequence (P94681 whole entry T143Q/G149N, the tested form may be a part): as the sequence (P94681 whole entry G149N, the tested form may be a part) above, with T143Q counted along it

[4] = target: T4, TsaM (Comamonas testosteroni, UniProt P94679); assay: LC-MS product formation and NADH consumption (A340); type: biochemical; conditions: with reductase VanB, Fe(II), 30 °C
T4 construct: gene tsaM1; pET-28a(+)-TEV-tsaM, E. coli C41(DE3), purified as TsaC; trimer
T4 sequence (P94679 1-347): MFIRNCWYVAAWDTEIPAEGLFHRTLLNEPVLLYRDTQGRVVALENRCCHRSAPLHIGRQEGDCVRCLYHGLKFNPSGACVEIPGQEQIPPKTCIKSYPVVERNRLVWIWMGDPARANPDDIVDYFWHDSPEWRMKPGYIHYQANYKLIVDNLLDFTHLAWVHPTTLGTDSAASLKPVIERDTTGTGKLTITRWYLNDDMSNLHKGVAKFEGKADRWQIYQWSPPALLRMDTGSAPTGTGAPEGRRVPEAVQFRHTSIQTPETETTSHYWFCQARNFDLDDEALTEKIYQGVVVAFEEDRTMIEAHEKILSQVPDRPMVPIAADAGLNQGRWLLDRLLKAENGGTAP

[5] = substrate: O=S(=O)(O)c1ccc(CO)cc1; assay: LC-MS steady-state kinetics; type: biochemical, Comamonas testosteroni; conditions: 2 mM NAD+, 30 °C
Excerpt: (§1) LC-MS steady-state kinetics on TsaC

[6] = substrate: O=C(O)c1ccc(CO)cc1; assay: LC-MS steady-state kinetics; type: biochemical, Comamonas testosteroni; conditions: 2 mM NAD+, 30 °C
Excerpt: as §1

[7] = substrate: O=Cc1ccc(C(=O)O)cc1; assay: LC-MS steady-state kinetics; type: biochemical, Comamonas testosteroni; conditions: 2 mM NAD+, 30 °C, aldehyde hydrate proposed as the oxidized species
Excerpt: as §1

[8] = substrate: O=Cc1ccc(S(=O)(=O)O)cc1; assay: LC-MS steady-state kinetics; type: biochemical, Comamonas testosteroni; conditions: 2 mM NAD+, 30 °C, aldehyde hydrate proposed as the oxidized species
Excerpt: as §1

[9] = target: the molecule itself; assay: crystal structure; hanging-drop vapor diffusion, 10 to 20 mg/ml protein with 2 mM NAD+, 0.2 M KCl, 20% PEG 3350, 10% glycerol, 293 K; two chains in the asymmetric unit, tetramer with two symmetry-related molecules; 2.18 A
[10] = target: the molecule itself; assay: SEC; HiPrep 16/60 Sephacryl S200-HR, 50 mM Hepes pH 8.0, 200 mM NaCl, 5% glycerol
[11] = substrate: O=Cc1ccc(C(=O)O)cc1; assay: LC-MS steady-state kinetics; type: biochemical, Comamonas testosteroni; conditions: 2 mM NAD+, 30 °C
Excerpt: (§2) LC-MS steady-state kinetics on TsaD

[12] = substrate: O=Cc1ccc(S(=O)(=O)O)cc1; assay: LC-MS steady-state kinetics; type: biochemical, Comamonas testosteroni; conditions: 2 mM NAD+, 30 °C
Excerpt: as §2

[13] = target: the molecule itself; assay: SEC-MALS; 15 ul of 90 uM protein, AdvanceBio 300A column, 50 mM Hepes pH 8.2, 200 mM NaCl, 5% glycerol, with either NAD+ or NADH, room temperature; about 0.3 uM at the apex of the largest peak
[14] = target: the molecule itself; assay: SEC; gel filtration in the purification of TsaM, purified as described for TsaC; lysis buffer 50 mM Tris-HCl pH 7.2, 250 mM NaCl

NC(=O)C1=CN([C@@H]2O[C@H](COP(=O)(O)OP(=O)(O)OC[C@H]3O[C@@H](n4cnc5c(N)ncnc54)[C@H](O)[C@@H]3O)[C@@H](O)[C@H]2O)C=CC1 [NADH]
ΔTm [1]: 12.4 °C

C[C@H](O)[C@@H](C)O [meso-2,3-butanediol]
GC-MS turnover [2]: both the G149N and T143Q/G149N variants of TsaC show a significantly improved ability | GC-MS turnover [3]: T143Q/G149N variants of TsaC show a significantly improved ability to transform meso-2,3-butanediol into 3-hydroxy-2-butanone

Cc1ccc(S(=O)(=O)O)cc1 [4-methylbenzenesulfonate]
LC-MS product formation and NADH consumption (A340) [4]: more NADH is consumed in assays that contain 4-methylbenzenesulfonate rather than 4-methylbenzoate

Cc1ccc(C(=O)O)cc1 [4-methylbenzoate]
LC-MS product formation and NADH consumption (A340) [4]: TsaM and VanB consume more 4-methylbenzenesulfonate than 4-methylbenzoate

B1: TsaC (wild type), short-chain dehydrogenase/reductase of the TsaMBCD pathway (enzyme, Comamonas testosteroni, UniProt P94681 1-252, looked up)
chain: MNLNKQVAIVTGGASGFGAAIARRLSQAGAAVLVADLNAEGAQRMATELNAAGGRALGMACDVSKEADYRAVVDAAIAQLGGLHIVVNNAGTTHRNKPALAVTEDEFDRVYRVNLKSVYWSAQCALPHFAQQGHGVMVNVASTTGVRPGPGLTWYSGSKAAMINLTKGLALEFARSGVRINAVNPMIGETPMMADFMGMEDTPANRERFLSRIPLGRFTRPDDVASAVAFLASDDASFLTGVCLDVDGGRNI
notes: TsaC, Comamonas testosteroni, codon-optimized synthetic gene in pET-28a(+)-TEV; native residues 1 (initial methionine) to 252 (the four C-terminal residues are 249 to 252); the His6 tag and TEV protease cleavage site are numbered -20 to -1; The tag and TEV site (residues -20 to -1) are present in the crystallised protein but disordered; no cleavage of the tag is described; also called wild-type …
Km [5]: 13 ± 2.0 µM | Vmax [5]: 12 µM/min | kcat [5]: 0.1 ± 0.004 s⁻¹ | kcat/Km [5]: 7900 ± 1300 M⁻¹ s⁻¹ | Km [6]: 18 ± 2.8 µM | Vmax [6]: 12 µM/min | kcat [6]: 0.0983 ± 0.00367 s⁻¹ | kcat/Km [6]: 5400 ± 870 M⁻¹ s⁻¹ | Km [7]: 23 ± 4.7 µM | Vmax [7]: 13 µM/min | kcat [7]: 0.112 ± 0.00667 s⁻¹ | kcat/Km [7]: 4800 ± 1000 M⁻¹ s⁻¹ | Km [8]: 20 ± 3.5 µM | Vmax [8]: 15 µM/min | kcat [8]: 0.125 ± 0.00583 s⁻¹ | kcat/Km [8]: 6200 ± 1100 M⁻¹ s⁻¹ | stoichiometry N [9]: 4

B2: TsaD (wild type), aldehyde dehydrogenase of the TsaMBCD pathway (enzyme, Comamonas testosteroni, UniProt P94682 1-476, looked up)
chain: MSTVLYRCPELLIGGEWRPGRHEQRLVVRNPATGEPLDELRLASADDLQLALQTTQQAFEHWRQVPAHERCARLERGVARLRENTERIAHLLTLEQGKTLAEARMECAMAADLIKWYAEEARRVYGRVIPARLPNSRMEVFKFPVGPVAAFSPWNFPLVLSARKLGGAIAAGCSIVLKAAEETPASVAAMVDCLNQELPPGVVQLLYGVPAEVSQALIASPVVRKVTFTGSVPVGRHLAELSARHLKRITLELGGHAPVIVCGDADIARTVNLMVQHKFRNAGQACLAPTRFFVDRRIYGDFVDAFGATQALRVGAGMAAETQMGPVASARRQAAVQDLIARSVAAGARPVASAVPEAGYFVAPTLLADVPLDAPVMSEEPFGPVACAVPFDSLDQAIAQANHNPYGLAGYLFTDSAKAILAVSERLEVGSLAVNGMGVSVPEAPFGGVKDSGYGSESGTEGMEAFLDTKFMHYVA
notes: TsaD, Comamonas testosteroni, codon-optimized synthetic gene in pMCSG9; Expression followed the TsaC protocol with ampicillin; also called untagged TsaD; source: E. coli, purified (MBPTrap, TEV cleavage, HisTrap HP flow-through, Sephacryl S200-HR gel filtration); not shown: MBP, N-terminal, cleaved; His6, N-terminal, cleaved
stoichiometry N [10]: 2 | Km [11]: 21 ± 6.9 µM | Vmax [11]: 13 µM/min | kcat [11]: 0.105 ± 0.00983 s⁻¹ | kcat/Km [11]: 5000 ± 1700 M⁻¹ s⁻¹ | Km [12]: 16 ± 2.5 µM | Vmax [12]: 13 µM/min | kcat [12]: 0.112 ± 0.00517 s⁻¹ | kcat/Km [12]: 6900 ± 1100 M⁻¹ s⁻¹

B3: Y155F TsaC variant (enzyme, Comamonas testosteroni, UniProt P94681 1-252, looked up)
chain: B1 chain with Y155F
notes: TsaC, Comamonas testosteroni, made by site-directed mutagenesis of pET-28a(+)-TEV-tsaC; same limits as the wild type (native residues 1 to 252); Expressed and purified as the wild type; source: E. coli C41(DE3), purified (HisTrap HP, Sephacryl S200-HR gel filtration)
stoichiometry N [13]: 4

B4: TsaM (wild type), Rieske oxygenase of the TsaMBCD pathway (enzyme, Comamonas testosteroni, UniProt P94679 1-347, looked up)
chain: T4 sequence (P94679 1-347)
notes: TsaM, Comamonas testosteroni, in pET-28a(+)-TEV-tsaM; also called wild-type TsaM; source: E. coli C41(DE3), purified as described for TsaC (gel filtration)
stoichiometry N [14]: 3
